Measured values reported in patent US20260008856A1, “METHODS OF TREATING DISEASE USING ANTI-IL1RAP ANTIBODIES AND ANTIBODY DRUG CONJUGATES” (Bluefin Biomedicine, Inc., priority 2022, published 2026).
Substitutions are numbered along the chain they refer to.

B1: 34D1_21B3: human anti-IL1RAP antibody, VH SEQ ID NO: 136, VL SEQ ID NO: 137 (antibody, V domains shown)
VH: QGQLVESGGGVVQPGRSLRLSCAASGFTFSSYTLHWVRQAPGKGLEWVAVIWYDGSNKYYVDSVKGRFTISRDNSKNTLYLQMNSLRAEDTAVYYCAREYGSGSYYNVYYGMDVWGQGTTVTVSS
VL: DIVMTQSPLSLPVTPGEPASISCRSSQSLLHSNGYKYLDWYLQKAGQSPHLLIYLGSNRASGVPDRFSGSGSGTDFTLKISRVEAEDVGFYYCMQTLQIPLTFGGGTKLEIK
B2: 36A12_21C1: human anti-IL1RAP antibody, VH SEQ ID NO: 144, VL SEQ ID NO: 147 (antibody, V domains shown)
VH: EVQLVESGGGLVQPGGSLRLSCAASGFTLSFYWMTWVRQAPGKGLEWVANIKQDGNEKNYVDSVKGRFTISKDNAKKSVFLQMNSLRAEDTAVYYCAREGYFGSGYFDYWGQGTLVTVSS
VL: DIQMTQSPSTLSASVGDRVTITCRASQSINSWLAWYQQKPGKAPKLLIYKASTLESGVPSRFSGSGSGTEFTLTISSLQPDDFAPYYCQHYNSYPHTFGQGTKVEIK
B3: 33H2_21B1: human anti-IL1RAP antibody, VH SEQ ID NO: 140, VL SEQ ID NO: 143 (antibody, V domains shown)
VH: EVQVVESGGGLVQPGGSLRLSCATSGFTFRSYWMTWVRQAPGKGLEWVANIKQDGSERHYVDSVKGRFTISRDNAKTSLYLQMSSLRAEDTAMYYCAREGYYGSGYFDYWGQGTLVTVSS
VL: B2 VL with T20I, N30S, S31R, W32G, T53N, P85A, H90Q, N92S, S93Y, P95S
B4: 32C12_21A4: human anti-IL1RAP antibody, VH SEQ ID NO: 32, VL SEQ ID NO: 36 (antibody, V domains shown)
VH: QVQLVESGGGVVQPGRSLRLSCAASGFTFRNYGIHWVRQAPGKGLEWVAVIWYDGSNKFYADSVKGRFTISRDNSKNTLYLQMNSLRVEDTAVYYCAREEGIAVAPFDYWGQGTLVTVSS
VL: DIQMTQSPSSLSASVGDRVAITCRANQSIASYLNWYQQKPGKAPKLLIYGASSLQNGVPSRFSGSGSRTDFTLTISSLQPEDFATYYCQQSYSTEITFGQGTRLEIK
B5: 10C8_15A1: human anti-IL1RAP antibody, VH SEQ ID NO: 9, VL SEQ ID NO: 13 (antibody, V domains shown)
VH: QVQLVESGGGVVQPGRSLRISCAASGFTFRSYGMHWVRQAPGKGLEWVAIIWHDESYKYYVDSVKGRFTISRDNSKNTLYLQMNSLRAEDTAVYYCARGDYYGSGSYYDAFDIWGQGTMVTVSS
VL: DIQMTQSPSSLSASVGDRVIITCRASQGISNYLAWFQQKPGKCPNLLIYAASTLRSGVPSRFSGSGSGTDFTLTISSLQPEDVATYYCQKYNSAPYTFGQGTKVEIK
B6: 34H8_21B4: human anti-IL1RAP antibody, VH SEQ ID NO: 185, VL SEQ ID NO: 189 (antibody, V domains shown)
VH: QVQLQESGPGLVKPSETLSLTCAVSGYSASGLYYWAWIRQPPGKGLEWIGNIYHSGRTYYNPSLESRVSISLDTSKHQVSLKLKSVTYADTAVYFCARDRFDGFDIWGQGTMVTVSS
VL: EIVMTQSPATLSVSPGERATLSCRASQTINNILAWYQQKPGQAPRLLIYGASTRATGIPARFSGSGSGTEFTLTISSLQSEDFAVYYCQQYNNWPLTFGGGTKLEIK
B7: 38E10_21C3: human anti-IL1RAP antibody, VH SEQ ID NO: 74, VL SEQ ID NO: 78 (antibody, V domains shown)
VH: EVQLLESGGGLVQPGGSLRLSCAASGFTFSNYAMTWVRQAPGKGLEWVSSISISRAGTYYADSVKGRFTISRDNSKNTLNLQMNSLRAEDTAEYYCAREYYYGMDVWGQGTTVTVSS
VL: EIVLTQSPATLSLSPGERATLSCRASQSVSSYLAWYQQKPGQTPRLLIYDASNRATGIPARFSGSGSGTDFTLTISSLETEDFAVYYCQQLINWPLTFGGGTKLEIK
B8: 31F9_21A1: human anti-IL1RAP antibody, VH SEQ ID NO: 118, VL SEQ ID NO: 120 (antibody, V domains shown)
VH: QVQLVESGGGMVQPGRSLRLSCTASGFTFSSHGMHWVRQAPGKGLEWVAVIWFDGSNEYYVDSVKGRFTISRDNSKNTLYLQMNSLRAEDTAVYYCARENVYGSGWFFDYWGQGTLVTVSS
VL: EIVMTQSPATLSVSPGERASLSCRASQSVGSNLAWYQQKPGQAPRLLIFGASTRATGIPARFSGSRSGTEFTLTISSLQSEDFALYYCQQYNNWPPWTFGQGTKVEIK
B9: 32D4_21D6: human anti-IL1RAP antibody, VH SEQ ID NO: 121, VL SEQ ID NO: 122 (antibody, V domains shown)
VH: B8 VH with V2L, M11V, T23A, H32Y, F53Y, N57S, V61A
VL: B8 VL
B10: 35D11_22A1: human anti-IL1RAP antibody, VH SEQ ID NO: 127, VL SEQ ID NO: 128 (antibody, V domains shown)
VH: B8 VH with V2L, M11V, T23A, H32Y, F53Y, N57S, V61A, Y80F, E89D
VL: B8 VL with N92D, V105L
B11: 33E9_21A6: human anti-IL1RAP antibody, VH SEQ ID NO: 125, VL SEQ ID NO: 126 (antibody, V domains shown)
VH: B8 VH with V2L, M11V, P14F, T23A, F53Y, N57S, V61A
VL: B8 VL with V105L
B12: 32F9_21A5: human anti-IL1RAP antibody, VH SEQ ID NO: 123, VL SEQ ID NO: 124 (antibody, V domains shown)
VH: B8 VH with V2L, M11V, T23A, F53Y, N57S, V61A, T115S
VL: B8 VL with V105L
B13: 41G4_15B6: human anti-IL1RAP antibody, VH SEQ ID NO: 116, VL SEQ ID NO: 36 (antibody, V domains shown)
VH: B4 VH with I34M
VL: B4 VL

These molecules were tested on Karpas 299 (assay: Flow cytometry binding to endogenous cell line Karpas 299). Conditions: primary antibody 1 ug/ml.
Type: cell-based, human
Design: key to binding to Karpas 299 by flow cytometry: (−): No binding; (+): Weak binding; (++): Moderate binding; (+++): Strong binding
Method: (§1) Staining for flow cytometry was performed in 1× cold PBS with 0.5% BSA. Primary antibodies (1 ug/ml) were incubated with live cells on ice for 30 minutes, after a brief wash, cells were incubated with Alexa Fluro® 488-conjugated anti-human IgG secondary antibody @1:1000 (709-546-149, Jackson ImmunoResearch). Acquisition of the data was performed on a MACSQuant® Flow Cytometers (Miltenyi Biotec) and analyzed with FlowJo software.
(§2) Over 1,000 hits were identified that bind strongly to CHO-human IL1RAP, but not parental CHO cells. 68 clones were selected for molecular cloning. Based on unique CDR3 sequences from the heavy chain variable domain, 35 antibodies from 13 families were confirmed by binding in IL1RAP positive cell lines EOL1 and Karpas 299 (see Table 8) by flow cytometry (MACSQuant® www.miltenybiotec.com).

| Molecule | binding to Karpas 299 by flow cytometry |
| --- | --- |
| B1 | (++) |
| B2 | (+++) |
| B3 | (+++) |

The molecules below were run on MOLT3 (assay: Flow cytometry binding to endogenous cell line MOLT3). Conditions: primary antibody 1 ug/ml.
Type: cell-based
Design: key: (−): No binding; (+): Weak binding; (++): Moderate binding; (+++): Strong binding
Method: as §1

| Molecule | binding to MOLT3 by flow cytometry |
| --- | --- |
| B4 | (+) |
| B1 | (+) |
| B5 | (−) |
| B6 | (+) |
| B7 | (+) |
| B2 | (+) |
| B3 | (+) |
| B8 | (+) |
| B9 | (+) |
| B10 | (+) |
| B11 | (+) |
| B12 | (+) |

Each molecule was assayed on EOL-1 (assay: Flow cytometry binding to endogenous cell line EOL-1). Conditions: primary antibody 1 ug/ml.
Type: cell-based, human
Design: key to binding to EOL-1 by flow cytometry: (−): No binding; (+): Weak binding; (++): Moderate binding; (+++): Strong binding
Method: as §1, §2

| Molecule | binding to EOL-1 by flow cytometry |
| --- | --- |
| B4 | (+++) |
| B13 | (+++) |
| B1 | (+++) |
| B5 | (+++) |
| B6 | (+++) |
| B7 | (+++) |
| B2 | (+++) |
| B3 | (+++) |
| B8 | (+++) |
| B9 | (+++) |
| B10 | (+++) |
| B11 | (+++) |
| B12 | (+++) |

What follows are molecules tested against T1, recombinant human IL1RAP (Homo sapiens, UniProt Q9NPH3) (assay: Binding competition binning on Octet). Conditions: Protein A biosensors.
T1 construct: MBP-IL1RAP(S21-T367)-; 8xHis (C); made in house; host or cells: CHO (ExpiCHO transient expression)
Method: Binding Competition binning: Binding competition among different antibodies was determined using a real-time, interferometry assay on an Octet Red™ instrument with Protein A-conjugated biosensors. To assess whether two antibodies competed for binding to a recombinant IL1RAP protein, the assay was performed as follows. Protein A biosensors were first submerged into wells containing 10 ug/mL of individual monoclonal antibodies for 5 minutes. Following the capture step, the biosensors were dipped briefly (15 seconds) into buffer and then any unoccupied sites on the biosensor were saturated by submerging them for 5 minutes into wells containing 100 ug/mL of an irrelevant monoclonal antibody. The Octet™ biosensors were then dipped briefly (15 seconds) in buffer before immersion for 1 minute into wells containing recombinant IL1RAP. The biosensors were dipped briefly (15 seconds) in buffer before immersion for 1 minute into wells containing a second recombinant antibody.
For the control case where the second antibody was the same as the first, there was no increase in signal, because there was no additional binding to the recombinant target.
For the control case where buffer was used instead of the first antibody, no recombinant target bound the non-quenching antibody on the biosensor and no second antibody bound the biosensor.
Selected antibodies were evaluated in pairs for their ability to simultaneously bind recombinant human IL1RAP. The analysis was performed by Octet™ loaded with Protein A Biosensors. A total of five different bins were determined as follows.

| Molecule | competition for binding, bin (2) | competition for binding, bin (1) |
| --- | --- | --- |
| B4 | competed with each other | – |
| B5 | competed with each other | – |
| B7 | – | competed with each other |
